Laboratory results reported in patent US20250163145A1 (SHIONOGI, published 2025).
Where no end group is shown, it is not given here.

Biological target: T1, epitope peptide Cys-CE3C long (also: biotin label, site not given here)
T1 peptide: CSVNVDKQPKYEYSL
Assay: competitive ELISA, unlabeled vs biotin-labeled peptide, antibody on anti-human IgG plate
Procedure: A diluted solution of the obtained recombinant humanized antibody, a biotin-labeled immunogen peptide, and Streptavidin-HRP (manufactured by PIERCE) were added to an anti-human IgG antibody-immobilized plate, and reacted overnight at 4° C. […] Next, a recombinant human antibody at the dilution rate, a biotin-labeled immunogen peptide, and Streptavidin-HRP (manufactured by PIERCE) were added. At the same time, a dilution series of unlabeled immunogenic peptide was added and reacted overnight at 4° C. After washing twice with ELISA wash buffer, TMB-Substrate Chromogen (manufactured by Thermo Fisher Scientific) was added to develop color, the reaction was stopped with an equal amount of 0.5N sulfuric acid, and the absorbance at 450 nm was measured. The concentration of the unlabeled peptide which attenuated the signal of the biotin-labeled peptide by half was defined as the affinity (IC50).

Binder | IC50
h15H11-16 (antibody, human IgG4 S228P, kappa, V domains shown, hIgG4Pro/hIgK) VH: QVQLVQSGSELKKPGASVKVSCKASGYTFTEYNMHWVRQAPGRSLEWMGRINPKNGVINSNEKFKDRFVFSLDTSVSTAYLQISSLKAEDTAVYYCAPSYYGGNDDAYWGQGTLVTVSS VL: DIVLTQSPASLAVSPGQRATITCRASESVDNYGISFMNWFQQKPGQPPKLLIYAASSQGSGVPARFSGSGSGTDFTLTINPMEANDTANYYCQQSKEFPWTFGGGTKVEIKR | 680 pM
h15H11-23 (antibody, human IgG4 S228P, kappa, V domains shown, hIgG4Pro/hIgK) VH: QVQLVQSGSELKKPGASVKVSCKASGYTFTEYNMHWVRQAPGRSLEWMGRINPKNGVINSNEKFKDRFVFSLDTSVSTAYLQISSLKAEDTAVYYCAPSYYGGNSDAYWGQGTLVTVSS VL: DIVLTQSPASLAVSPGQRATITCRASDSVDNYGISFLNWFQQKPGQPPKLLIYAASSQGSGVPARFSGSGSGTDFTLTINPMEANDTANYYCQQSKEFPWTFGGGTKVEIKR | 830 pM
h15H11-33 (antibody, human IgG4 S228P, kappa, V domains shown, hIgG4Pro/hIgK) VH: QVQLVQSGSELKKPGASVKVSCKASGYTFTDYNMHWVRQAPGRSLEWMGRINPKNGVIQSNEKFKDRFVFSLDTSVSTAYLQISSLKAEDTAVYYCAPSYYGGNSDAYWGQGTLVTVSS VL: DIVLTQSPASLAVSPGQRATITCRASDSVDNYGISFLNWFQQKPGQPPKLLIYAASSQGSGVPARFSGSGSGTDFTLTINPMEANDTANYYCQQSKEFPWTFGGGTKVEIKR | 980 pM
h15H11-26 (antibody, human IgG4 S228P, kappa, V domains shown, hIgG4Pro/hIgK) VH: QVQLVQSGSELKKPGASVKVSCKASGYTFTDYNMHWVRQAPGRSLEWMGRINPKNGVINSNEKFKDRFVFSLDTSVSTAYLQISSLKAEDTAVYYCAPSYYGGDTDAYWGQGTLVTVSS VL: DIVLTQSPASLAVSPGQRATITCRVSDSVDNYGISFLNWFQQKPGQPPKLLIYAASSQGSGVPARFSGSGSGTDFTLTINPMEANDTANYYCQQSKEFPWTFGGGTKVEIKR | 880 pM
h15H11-32 (antibody, human IgG4 S228P, kappa, V domains shown, hIgG4Pro/hIgK) VH: QVQLVQSGSELKKPGASVKVSCKASGYTFTEYNMHWVRQAPGRSLEWMGRINPKNGVINSNEKFKDRFVFSLDTSVSTAYLQISSLKAEDTAVYYCAPSYYGGNSDAYWGQGTLVTVSS VL: DIVLTQSPASLAVSPGQRATITCRVSDSVDNYGISFLNWFQQKPGQPPKLLIYAASSQGSGVPARFSGSGSGTDFTLTINPMEANDTANYYCQQSKEFPWTFGGGTKVEIKR | 950 pM
h15H11-35 (antibody, human IgG4 S228P, kappa, V domains shown, hIgG4Pro/hIgK) VH: QVQLVQSGSELKKPGASVKVSCKASGYTFTDYNMHWVRQAPGRSLEWMGRINPKNGVINSNEKFKDRFVFSLDTSVSTAYLQISSLKAEDTAVYYCAPSYYGGNQDAYWGQGTLVTVSS VL: DIVLTQSPASLAVSPGQRATITCRASDSVDNYGISFLNWFQQKPGQPPKLLIYAASSQGSGVPARFSGSGSGTDFTLTINPMEANDTANYYCQQSKEFPWTFGGGTKVEIKR | 1000 pM
h15H11-28 (antibody, human IgG4 S228P, kappa, V domains shown, hIgG4Pro/hIgK) VH: QVQLVQSGSELKKPGASVKVSCKASGYTFTEYNMHWVRQAPGRSLEWMGRINPKNGVINSNEKFKDRFVFSLDTSVSTAYLQISSLKAEDTAVYYCAPSYYGGNSDAYWGQGTLVTVSS VL: DIVLTQSPASLAVSPGQRATITCRASESVDNYGISFMNWFQQKPGQPPKLLIYAASSQGSGVPARFSGSGSGTDFTLTINPMEANDTANYYCQQSKEFPWTFGGGTKVEIKR | 910 pM
h15H11-22 (antibody, human IgG4 S228P, kappa, V domains shown, hIgG4Pro/hIgK) VH: QVQLVQSGSELKKPGASVKVSCKASGYTFTEYNMHWVRQAPGRSLEWMGRINPKNGVINSNEKFKDRFVFSLDTSVSTAYLQISSLKAEDTAVYYCAPSYYGGDTDAYWGQGTLVTVSS VL: DIVLTQSPASLAVSPGQRATITCRASESVDNYGISFMNWFQQKPGQPPKLLIYAASSQGSGVPARFSGSGSGTDFTLTINPMEANDTANYYCQQSKEFPWTFGGGTKVEIKR | 800 pM
h15H11-34 (antibody, human IgG4 S228P, kappa, V domains shown, hIgG4Pro/hIgK) VH: QVQLVQSGSELKKPGASVKVSCKASGYTFTEYNMHWVRQAPGRSLEWMGRINPKNGVINSNEKFKDRFVFSLDTSVSTAYLQISSLKAEDTAVYYCAPSYFGGQSDAYWGQGTLVTVSS VL: DIVLTQSPASLAVSPGQRATITCRASDSVDNYGISFLNWFQQKPGQPPKLLIYAASSQGSGVPARFSGSGSGTDFTLTINPMEANDTANYYCQQSKEFPWTFGGGTKVEIKR | 990 pM
h15H11-20 (antibody, human IgG4 S228P, kappa, V domains shown, hIgG4Pro/hIgK) VH: QVQLVQSGSELKKPGASVKVSCKASGYTFTDYNMHWVRQAPGRSLEWMGRINPKNGVINSNEKFKDRFVFSLDTSVSTAYLQISSLKAEDTAVYYCAPSYYGGNDDAYWGQGTLVTVSS VL: DIVLTQSPASLAVSPGQRATITCRASESVDNYGISFMNWFQQKPGQPPKLLIYAASSQGSGVPARFSGSGSGTDFTLTINPMEANDTANYYCQQSKEFPWTFGGGTKVEIKR | 770 pM
h15H11-17 (antibody, human IgG4 S228P, kappa, V domains shown, hIgG4Pro/hIgK) VH: QVQLVQSGSELKKPGASVKVSCKASGYTFTDYNMHWVRQAPGRSLEWMGRINPKNGVINSNEKFKDRFVFSLDTSVSTAYLQISSLKAEDTAVYYCAPSYYGGNDDAYWGQGTLVTVSS VL: DIVLTQSPASLAVSPGQRATITCRASDSVDNYGISFLNWFQQKPGQPPKLLIYAASSQGSGVPARFSGSGSGTDFTLTINPMEANDTANYYCQQSKEFPWTFGGGTKVEIKR | 700 pM
h15H11-24 (antibody, human IgG4 S228P, kappa, V domains shown, hIgG4Pro/hIgK) VH: QVQLVQSGSELKKPGASVKVSCKASGYTFTEYNMHWVRQAPGRSLEWMGRINPKNGVIQSNEKFKDRFVFSLDTSVSTAYLQISSLKAEDTAVYYCAPSYYGGNSDAYWGQGTLVTVSS VL: DIVLTQSPASLAVSPGQRATITCRASDSVDNYGISFLNWFQQKPGQPPKLLIYAASSQGSGVPARFSGSGSGTDFTLTINPMEANDTANYYCQQSKEFPWTFGGGTKVEIKR | 850 pM
h15H11-19 (antibody, human IgG4 S228P, kappa, V domains shown, hIgG4Pro/hIgK) VH: QVQLVQSGSELKKPGASVKVSCKASGYTFTEYNMHWVRQAPGRSLEWMGRINPKNGVINSNEKFKDRFVFSLDTSVSTAYLQISSLKAEDTAVYYCAPSYYGGDTDAYWGQGTLVTVSS VL: DIVLTQSPASLAVSPGQRATITCRASDSVDNYGISFLNWFQQKPGQPPKLLIYAASSQGSGVPARFSGSGSGTDFTLTINPMEANDTANYYCQQSKEFPWTFGGGTKVEIKR | 740 pM
h15H11-29 (antibody, human IgG4 S228P, kappa, V domains shown, hIgG4Pro/hIgK) VH: QVQLVQSGSELKKPGASVKVSCKASGYTFTDYNMHWVRQAPGRSLEWMGRINPKNGVILSNEKFKDRFVFSLDTSVSTAYLQISSLKAEDTAVYYCAPSYYGGNTDAYWGQGTLVTVSS VL: DIVLTQSPASLAVSPGQRATITCRASESVDNYGISFMNWFQQKPGQPPKLLIYAASSQGSGVPARFSGSGSGTDFTLTINPMEANDTANYYCQQSKEFPWTFGGGTKVEIKR | 910 pM
h15H11-36 (antibody, human IgG4 S228P, kappa, V domains shown, hIgG4Pro/hIgK) VH: QVQLVQSGSELKKPGASVKVSCKASGYTFTDYNMHWVRQAPGRSLEWMGRINPKNGVINLNEKFKDRFVFSLDTSVSTAYLQISSLKAEDTAVYYCAPSYYGGNTDAYWGQGTLVTVSS VL: DIVLTQSPASLAVSPGQRATITCRASDSVDNYGISFLNWFQQKPGQPPKLLIYAASSQGSGVPARFSGSGSGTDFTLTINPMEANDTANYYCQQSKEFPWTFGGGTKVEIKR | 1020 pM
h15H11-27 (antibody, human IgG4 S228P, kappa, V domains shown, hIgG4Pro/hIgK) VH: QVQLVQSGSELKKPGASVKVSCKASGYTFTDYNMHWVRQAPGRSLEWMGRINPKNGVILSNEKFKDRFVFSLDTSVSTAYLQISSLKAEDTAVYYCAPSYYGGNTDAYWGQGTLVTVSS VL: DIVLTQSPASLAVSPGQRATITCRVSDSVDNYGISFLNWFQQKPGQPPKLLIYAASSQGSGVPARFSGSGSGTDFTLTINPMEANDTANYYCQQSKEFPWTFGGGTKVEIKR | 910 pM
h15H11-21 (antibody, human IgG4 S228P, kappa, V domains shown, hIgG4Pro/hIgK) VH: QVQLVQSGSELKKPGASVKVSCKASGYTFTEYNMHWVRQAPGRSLEWMGRINPKNGVILSNEKFKDRFVFSLDTSVSTAYLQISSLKAEDTAVYYCAPSYYGGNTDAYWGQGTLVTVSS VL: DIVLTQSPASLAVSPGQRATITCRASDSVDNYGISFLNWFQQKPGQPPKLLIYAASSQGSGVPARFSGSGSGTDFTLTINPMEANDTANYYCQQSKEFPWTFGGGTKVEIKR | 800 pM
h15H11-18 (antibody, human IgG4 S228P, kappa, V domains shown, hIgG4Pro/hIgK) VH: QVQLVQSGSELKKPGASVKVSCKASGYTFTDYNMHWVRQAPGRSLEWMGRINPKNGVINSNEKFKDRFVFSLDTSVSTAYLQISSLKAEDTAVYYCAPSYYGGNDDAYWGQGTLVTVSS VL: DIVLTQSPASLAVSPGQRATITCRVSDSVDNYGISFLNWFQQKPGQPPKLLIYAASSQGSGVPARFSGSGSGTDFTLTINPMEANDTANYYCQQSKEFPWTFGGGTKVEIKR | 740 pM
h15H11-25 (antibody, human IgG4 S228P, kappa, V domains shown, hIgG4Pro/hIgK) VH: QVQLVQSGSELKKPGASVKVSCKASGYTFTEYNMHWVRQAPGRSLEWMGRINPKNGVILSNEKFKDRFVFSLDTSVSTAYLQISSLKAEDTAVYYCAPSYYGGNTDAYWGQGTLVTVSS VL: DIVLTQSPASLAVSPGQRATITCRASESVDNYGISFMNWFQQKPGQPPKLLIYAASSQGSGVPARFSGSGSGTDFTLTINPMEANDTANYYCQQSKEFPWTFGGGTKVEIKR | 860 pM
h15H11-31 (antibody, human IgG4 S228P, kappa, V domains shown, hIgG4Pro/hIgK) VH: QVQLVQSGSELKKPGASVKVSCKASGYTFTEYNMHWVRQAPGRSLEWMGRINPKNGVIQSNEKFKDRFVFSLDTSVSTAYLQISSLKAEDTAVYYCAPSYYGGNSDAYWGQGTLVTVSS VL: DIVLTQSPASLAVSPGQRATITCRASESVDNYGISFMNWFQQKPGQPPKLLIYAASSQGSGVPARFSGSGSGTDFTLTINPMEANDTANYYCQQSKEFPWTFGGGTKVEIKR | 930 pM
h15H11-30 (antibody, human IgG4 S228P, kappa, V domains shown, hIgG4Pro/hIgK) VH: QVQLVQSGSELKKPGASVKVSCKASGYTFTDYNMHWVRQAPGRSLEWMGRINPKNGVINSNEKFKDRFVFSLDTSVSTAYLQISSLKAEDTAVYYCAPSYYGGDTDAYWGQGTLVTVSS VL: DIVLTQSPASLAVSPGQRATITCRASDSVDNYGISFLNWFQQKPGQPPKLLIYAASSQGSGVPARFSGSGSGTDFTLTINPMEANDTANYYCQQSKEFPWTFGGGTKVEIKR | 920 pM
